{"source": "patent US20080286284A1", "about": "(published 2008)", "binders": {"B1": {"name": "AB-PG1-XG1-077 (antibody, V domains shown)", "VH": "QVQLVESGGGVVQPGRSLRLSCAASGFTFISYGMHWVRQAPGKGLEWVAVISYDGSNKYYADSVKGRFTISRDNSKNTLYLQMNSLRAEDTAVYYCARVLVGALYYYNYYGMDVWGQGTTVTVSS", "VL": "DIVMTQTPLSLSVTPGQPASISCKSSQSLLHSDGKTFLYWYLQKPGQPPQLLIYEVSNRFSGVPDRFSGSGSGTDFTLKISRVEAEDVGLYYCMQSIQLPLTFGGGTKVEIK", "notes": "also called PRGX1-XG1-077"}, "B2": {"name": "^225Ac labeled mAb 026 (antibody, V domains shown)", "VH": "QVQLVESGGGVVQPGRSLRLSCAASGFTFSNYVMHWVRQAPGKGLEWVAIIWYDGSNKYYADSVKGRFTISRDNSKNTLYLQMNSLRAEDTAVYYCAGGYNWNYEYHYYGMDVWGQGTTVTVSS", "VL": "DIQMTQSPSSLSASVGDRVTITCRASQGITNYLAWFQQKPGKAPKSLIYAASSLQSGVPSKFSGSGSGTDFSLTISSLQPEDFATYYCQQYNSYPITFGQGTRLEIK"}, "B3": {"name": "AB-PG1-XG1-026 (antibody, V domains shown)", "VH": "B2 VH", "VL": "B2 VL", "notes": "also called XG-026; PRGX1-XG1-026"}, "B4": {"name": "AB-PG1-XG1-051 (antibody, V domains shown)", "VH": "QVQLVESGGGVVQPGRSLRLSCAASGFTFSSYGMHWVRQAPGKGLDWVAIIWHDGSNKYYADSVKGRFTISRDNSKKTLYLQMNSLRAEDTAVYYCARAWAYDYGDYEYYFGMDVWGQGTTVTVSS", "VL": "B2 VL with T30S, N31H, S72T, Y94F, I96L, Q100G, R103K, L104V", "notes": "also called XG-051; PRGX1-XG1-051"}, "B5": {"name": "AB-PG1-XG1-006 (antibody, V domains shown)", "VH": "QVQLVESGGGVVQPGRSLRLSCAASGFAFSRYGMHWVRQAPGKGLEWVAVIWYDGSNKYYADSVKGRFTISRDNSKNTQYLQMNSLRAEDTAVYYCARGGDFLYYYYYGMDVWGQGTTVTVSS", "VL": "DIQMTQSPSSLSASVGDRVTITCRASQGISNYLAWYQQKTGKVPKFLIYEASTLQSGVPSRFSGGGSGTDFTLTISSLQPEDVATYYCQNYNSAPFTFGPGTKVDIK", "notes": "also called XG-006; PRGX1-XG1-006"}, "B6": {"name": "PSMA 10.3 (antibody, V domains shown)", "VH": "QEQLVESGGGVVQPGRSLRLSCAASGFTFSTYGMHWVRQAPGKGLEWVAVTWHDGSNKYYADSVKGRFTISRDNSKNTLYLQMNSLRAEDTAVYYCARGGVGATYYYYYGMDVWGQGTTVTVSS", "VL": "not shown"}, "B7": {"name": "AB-PG1-XG1-069 (antibody, V domains shown)", "VH": "EVQLVQSGAEVKKPGESLKISCKGSGYSFTSYWIGWVRQMPGKGLEWMGIIYPGDSDTRYSPSFQGQVTISADKSISTAYLQWSSLKASDTAMYYCARRMAAAGPFDYWGQGTLVTVSS", "VL": "GIVMTQSPATLSVSPGERATLSCRTSQSIGWNLAWYQQKPGQAPRLLIYGASSRTTGIPARFSGSGSGTEFTLTISSLQSEDSAVYYCQHYDNWPMCSFGQGTELEIK", "notes": "also called PRGX1-XG1-069"}}, "key": {"[1]": {"target": "T1, prostate specific membrane antigen (PSMA), full-length human (human, UniProt Q04609 1-750)", "T1 construct": "also called cell-surface PSMA; full-length PSMA", "T1 sequence (Q04609 whole entry)": "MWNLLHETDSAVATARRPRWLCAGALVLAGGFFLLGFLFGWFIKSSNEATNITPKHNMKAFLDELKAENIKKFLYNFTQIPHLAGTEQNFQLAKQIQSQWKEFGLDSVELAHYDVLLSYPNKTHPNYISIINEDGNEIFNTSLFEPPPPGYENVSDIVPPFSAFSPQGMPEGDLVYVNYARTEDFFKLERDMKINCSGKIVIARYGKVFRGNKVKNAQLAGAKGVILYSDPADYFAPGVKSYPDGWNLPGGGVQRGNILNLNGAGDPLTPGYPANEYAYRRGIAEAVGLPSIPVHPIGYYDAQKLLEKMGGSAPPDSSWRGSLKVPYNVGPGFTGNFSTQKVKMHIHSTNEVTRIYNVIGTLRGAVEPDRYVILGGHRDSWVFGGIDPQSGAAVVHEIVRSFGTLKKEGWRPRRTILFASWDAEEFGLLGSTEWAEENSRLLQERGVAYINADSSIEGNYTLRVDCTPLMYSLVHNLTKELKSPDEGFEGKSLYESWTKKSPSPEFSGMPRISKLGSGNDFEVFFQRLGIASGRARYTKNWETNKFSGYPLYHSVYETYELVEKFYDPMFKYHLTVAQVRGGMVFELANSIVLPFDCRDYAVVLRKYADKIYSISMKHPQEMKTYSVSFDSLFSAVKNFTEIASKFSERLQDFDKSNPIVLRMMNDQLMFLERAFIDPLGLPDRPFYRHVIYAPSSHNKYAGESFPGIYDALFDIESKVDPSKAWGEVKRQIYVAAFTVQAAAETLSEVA", "assay": "lysate EIA, supernatant"}, "[2]": {"target": "T1, prostate specific membrane antigen …", "assay": "FACS, supernatant"}, "[3]": {"target": "T2, recombinant soluble PSMA (rsPSMA) (human, UniProt Q04609 44-750)", "T2 construct": "also called rsPSMA dimer; secreted rsPSMA", "T2 sequence (Q04609 44-750)": "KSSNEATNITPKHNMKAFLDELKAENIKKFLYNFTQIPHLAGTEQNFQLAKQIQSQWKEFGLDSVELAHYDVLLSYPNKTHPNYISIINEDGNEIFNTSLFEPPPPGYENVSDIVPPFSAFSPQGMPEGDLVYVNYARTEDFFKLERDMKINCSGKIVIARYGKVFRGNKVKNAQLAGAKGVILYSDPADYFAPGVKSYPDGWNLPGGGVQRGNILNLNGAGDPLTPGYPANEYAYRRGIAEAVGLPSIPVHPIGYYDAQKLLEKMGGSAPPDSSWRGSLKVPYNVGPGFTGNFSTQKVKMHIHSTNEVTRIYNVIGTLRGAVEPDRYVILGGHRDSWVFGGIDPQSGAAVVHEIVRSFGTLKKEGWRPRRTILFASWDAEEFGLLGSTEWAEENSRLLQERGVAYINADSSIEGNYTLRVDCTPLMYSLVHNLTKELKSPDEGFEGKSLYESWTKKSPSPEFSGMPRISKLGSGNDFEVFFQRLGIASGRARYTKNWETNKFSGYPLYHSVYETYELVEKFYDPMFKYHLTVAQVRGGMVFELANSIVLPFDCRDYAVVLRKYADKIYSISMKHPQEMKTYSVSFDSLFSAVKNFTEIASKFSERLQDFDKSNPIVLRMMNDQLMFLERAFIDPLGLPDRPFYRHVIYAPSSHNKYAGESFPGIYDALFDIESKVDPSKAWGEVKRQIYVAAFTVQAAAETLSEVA", "assay": "Biacore, rsPSMA", "procedure": "(§1) The streptavidin-coated sensor chips (SA chips, Biacore) were used to capture biotinylated anti-human IgG antibody (Sigma, St. Louis, Mo.). The entire sensor chip surface was conditioned with five injections of conditioning solution (1 M NaCl, 50 mM NaOH) and equilibrated with PBS buffer containing 0.005% polysorbate 20. Two to three thousand resonance units (RU) of biotinylated anti-human IgG antibody (Sigma) were immobilized onto the SA chip followed by an injection of regeneration buffer (glycine-HCl, pH 2.2). […] For each antibody at one concentration, the chip was regenerated and equilibrated. […] Thermodynamic and kinetic rate constants of binding were calculated using the Biacore Evaluation software."}, "[4]": {"target": "T1, prostate specific membrane antigen …", "assay": "FACS, 3T3-PSMA cells", "procedure": "Control anti-human IgG (Caltag, Burlingame, Calif.) was used to establish background binding. After two washes in PBS, the cells were incubated with anti-human IgG (BD Pharmingen, San Diego, Calif.) for 30 minutes on ice. Cells were washed twice in PBS, resuspended in 250 μl PBS and analyzed by flow cytometry using a FACScan machine (Becton Dickinson, Franklin Lakes, N.J.) and CellQuest software. Viable cells were gated by forward scatter and side scatter parameters, and binding was quantified using histogram plots of mean fluorescence intensity (MFI) levels."}, "[5]": {"target": "T1, prostate specific membrane antigen …", "assay": "FACS, C4-2 cells"}, "[6]": {"target": "T1, prostate specific membrane antigen …", "assay": "cell-based or functional assay"}, "[7]": {"target": "T2, recombinant soluble PSMA (rsPSMA)", "assay": "cell-based or functional assay"}, "[8]": {"target": "T2, recombinant soluble PSMA (rsPSMA)", "assay": "Biacore; Avg KD", "procedure": "(§2) To determine the kinetics and affinity of the antibodies, the antibodies in crude supernatants, in purified form and in bifunctional chelate modified forms were analyzed using a Biacore 3000 instrument (Biacore Inc., Piscataway, N.J.). Biacore 3000 is a fully automated surface plasmon resonance (SPR)-based biosensor system that is designed to provide real-time kinetic data from assay formats that require no tags or labeling of compounds for biomolecular interactions. It is ideal for screening crude supernatants.\nas §1"}, "[9]": {"target": "T2, recombinant soluble PSMA (rsPSMA)", "assay": "Biacore, captured mAb, rsPSMA in flow", "procedure": "as §2, §1"}, "[10]": {"target": "T2, recombinant soluble PSMA (rsPSMA)", "assay": "Biacore; Avg KD of purified 006", "procedure": "as §2, §1"}, "[11]": {"target": "T2, recombinant soluble PSMA (rsPSMA)", "assay": "Biacore; Avg KD of purified 10.3", "procedure": "as §2, §1"}}, "note": "Residue numbers refer to the chain shown, from its start. “And” between values parts separate entries of the source, which are not always exact repeats. Equal entries are not always repeated."}
{"binder": "B1", "values": [{"measurement": "Lysate EIA", "setting": "[1]", "result": 0.45}, {"measurement": "PGNX FACS", "setting": "[2]", "result": 392}, {"measurement": "Kd", "setting": "[3]", "result": 1.6, "unit": "nM"}, {"measurement": "koff", "setting": "[3]", "result": 0.000104, "unit": "s⁻¹"}, {"measurement": "kon", "setting": "[3]", "result": 60000, "unit": "M⁻¹ s⁻¹"}, {"measurement": "AVG Max binding", "setting": "[4]", "result": 227}, {"measurement": "C4.2 FACS", "setting": "[5]", "result": 12.4}]}
{"binder": "B2", "values": [{"measurement": "IC50, ^3H thymidine incorporation, C4-2 cells", "setting": "[6]", "result": 0.12, "unit": "nCi/mL"}, {"measurement": "IC50, cytotoxicity on C4-2 and LNCaP cells", "setting": "[6]", "result": "< 1", "unit": "nCi/mL"}, {"measurement": "selectivity of killing vs. control antibody (HuIgG)", "setting": "[6]", "result": "> 50", "unit": "fold"}, {"measurement": "selectivity of killing vs. control mAb (HuM195)", "setting": "[6]", "result": "> 100", "unit": "fold"}, {"measurement": "selectivity of killing, C4-2 vs. PC3", "setting": "[6]", "result": "> 50", "unit": "fold"}]}
{"binder": "B3", "values": [{"measurement": "Kd", "setting": "[3]", "result": 0.2, "unit": "nM"}, {"measurement": "koff", "setting": "[3]", "result": "2.9e-05", "unit": "s⁻¹"}, {"measurement": "kon", "setting": "[3]", "result": 150000, "unit": "M⁻¹ s⁻¹"}, {"measurement": "AVG Max binding", "setting": "[4]", "result": 148}, {"measurement": "IC50, folate hydrolase activity", "setting": "[7]", "result": 1.39, "unit": "µg/mL"}]}
{"binder": "B4", "values": [{"measurement": "Lysate EIA", "setting": "[1]", "result": 0.48}, {"measurement": "PGNX FACS", "setting": "[2]", "result": 83}, {"measurement": "Kd", "setting": "[3]", "result": 0.58, "unit": "nM"}, {"measurement": "koff", "setting": "[3]", "result": "8.2e-05", "unit": "s⁻¹"}, {"measurement": "kon", "setting": "[3]", "result": 140000, "unit": "M⁻¹ s⁻¹"}, {"measurement": "AVG Max binding", "setting": "[4]", "result": 202}, {"measurement": "C4.2 FACS", "setting": "[5]", "result": 9.9}]}
{"binder": "B5", "values": [{"measurement": "Kd", "setting": "[8]", "result": 0.492, "unit": "nM"}, {"measurement": "Lysate EIA", "setting": "[1]", "result": 0.39}, {"measurement": "PGNX FACS", "setting": "[2]", "result": 114}, {"measurement": "Kd", "setting": "[9]", "result": "0.466 nM and 0.562 nM and 0.492 nM"}, {"measurement": "koff", "setting": "[9]", "result": "0.000137 s⁻¹ and 0.000127 s⁻¹ and 6.4e-05 s⁻¹"}, {"measurement": "kon", "setting": "[9]", "result": "294000 M⁻¹ s⁻¹ and 226000 M⁻¹ s⁻¹ and 130000 M⁻¹ s⁻¹"}, {"measurement": "Kd", "setting": "[3]", "result": 0.48, "unit": "nM"}, {"measurement": "koff", "setting": "[3]", "result": "6.4e-05", "unit": "s⁻¹"}, {"measurement": "kon", "setting": "[3]", "result": 130000, "unit": "M⁻¹ s⁻¹"}, {"measurement": "AVG Max binding", "setting": "[4]", "result": 183}, {"measurement": "Kd", "setting": "[10]", "result": 0.514, "unit": "nM"}, {"measurement": "C4.2 FACS", "setting": "[5]", "result": 9.5}, {"measurement": "IC50, folate hydrolase activity", "setting": "[7]", "result": 9.34, "unit": "µg/mL"}]}
{"binder": "B6", "values": [{"measurement": "Kd", "setting": "[8]", "result": 1.91, "unit": "nM"}, {"measurement": "Lysate EIA", "setting": "[1]", "result": 1.06}, {"measurement": "Kd", "setting": "[11]", "result": 0.205, "unit": "nM"}, {"measurement": "kon", "setting": "[9]", "result": "190000 M⁻¹ s⁻¹ and 328000 M⁻¹ s⁻¹ and 296000 M⁻¹ s⁻¹"}, {"measurement": "Kd", "setting": "[3]", "result": 1.9, "unit": "nM"}, {"measurement": "koff", "setting": "[3]", "result": 0.000364, "unit": "s⁻¹"}, {"measurement": "kon", "setting": "[3]", "result": 190000, "unit": "M⁻¹ s⁻¹"}, {"measurement": "AVG Max binding", "setting": "[4]", "result": 181}]}
{"binder": "B7", "values": [{"measurement": "binding result", "setting": "[3]", "result": "no binding"}, {"measurement": "AVG Max binding", "setting": "[4]", "result": 71}]}
